Measured values taken from the supplement of paper PMC7125110.
± gives the standard error. This sample holds only a part of the variants without activity.

B1: glmS ribozyme (parent)
chain: AUAAAAGCGCCAGAACUACAGAAAUGUAGUUGACGAGGAGGAGGUUUAUCGAAUUUUCGGCGGAUGCCUCCAAA

Columns and labels:
Details in all cases: with glucosamine-6-phosphate
[1] = variants of: B1; assay: self-cleavage kobs at 160 uM GlcN6P; higher = faster cleavage; RNA array
How it was run: (§1)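 Barcoded ribozyme variants, transcribed in situ by E. coli RNA polymerase on sequenced MiSeq chips, were followed via a hybridised Cy3 probe at 37 °C. Glucosamine-6-phosphate ranged from 40 μM to 10 mM in HEPES/KCl/Mg(OAc)2 buffer. kobs came from decay fits to per-tile medians, and kcat and KM from weighted Michaelis–Menten fits.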

[2] = variants of: B1; assay: self-cleavage kobs at 640 uM GlcN6P; higher = faster cleavage; RNA array
How it was run: as §1

[3] = variants of: B1; assay: self-cleavage kobs at 2500 uM GlcN6P; higher = faster cleavage; RNA array
How it was run: as §1

[4] = variants of: B1; assay: self-cleavage kobs at 10000 uM GlcN6P; higher = faster cleavage; RNA array
How it was run: as §1

## G41A A53G
[1]
  self-cleavage kobs at 160 uM GlcN6P: 0.000343 ± 7e-05 s⁻¹
[2]
  self-cleavage kobs at 640 uM GlcN6P: 0.000842 ± 0.00015 s⁻¹
[3]
  self-cleavage kobs at 2500 uM GlcN6P: 0.00129 ± 0.00028 s⁻¹
[4]
  self-cleavage kobs at 10000 uM GlcN6P: 0.00427 ± 0.00084 s⁻¹

## A48G C50A C61G C67A C68U
[1]
  self-cleavage kobs at 160 uM GlcN6P: 8.22e-05 ± 2.2e-05 s⁻¹
[2]
  self-cleavage kobs at 640 uM GlcN6P: 8.1e-05 ± 3.2e-05 s⁻¹
[3]
  self-cleavage kobs at 2500 uM GlcN6P: 9.85e-05 ± 2.5e-05 s⁻¹

## G44A C61U
[1]
  self-cleavage kobs at 160 uM GlcN6P: < 1e-05 s⁻¹
[2]
  self-cleavage kobs at 640 uM GlcN6P: < 1e-05 s⁻¹
[3]
  self-cleavage kobs at 2500 uM GlcN6P: < 1e-05 s⁻¹
[4]
  self-cleavage kobs at 10000 uM GlcN6P: < 1e-05 s⁻¹

## U57G C58G A64G
[1]
  self-cleavage kobs at 160 uM GlcN6P: 6.2e-05 ± 2.9e-05 s⁻¹
[2]
  self-cleavage kobs at 640 uM GlcN6P: 8.58e-05 ± 3.5e-05 s⁻¹
[3]
  self-cleavage kobs at 2500 uM GlcN6P: 4.48e-05 ± 1.9e-05 s⁻¹

## A6G G9U
[2]
  self-cleavage kobs at 640 uM GlcN6P: < 1e-05 s⁻¹
[3]
  self-cleavage kobs at 2500 uM GlcN6P: < 1e-05 s⁻¹
[4]
  self-cleavage kobs at 10000 uM GlcN6P: < 1e-05 s⁻¹

## A6G A48U C61U
[2]
  self-cleavage kobs at 640 uM GlcN6P: < 1e-05 s⁻¹
[3]
  self-cleavage kobs at 2500 uM GlcN6P: < 1e-05 s⁻¹

## G40A C68G
[1]
  self-cleavage kobs at 160 uM GlcN6P: < 1e-05 s⁻¹
[2]
  self-cleavage kobs at 640 uM GlcN6P: < 1e-05 s⁻¹
[3]
  self-cleavage kobs at 2500 uM GlcN6P: < 1e-05 s⁻¹
[4]
  self-cleavage kobs at 10000 uM GlcN6P: < 1e-05 s⁻¹

## A48U U49C A64U C70U
[1]
  self-cleavage kobs at 160 uM GlcN6P: < 1e-05 s⁻¹
[2]
  self-cleavage kobs at 640 uM GlcN6P: < 1e-05 s⁻¹

## G40C G43U G66U
[1]
  self-cleavage kobs at 160 uM GlcN6P: < 1e-05 s⁻¹
[2]
  self-cleavage kobs at 640 uM GlcN6P: < 1e-05 s⁻¹
[3]
  self-cleavage kobs at 2500 uM GlcN6P: < 1e-05 s⁻¹

## A6C G9A G37A G51C
[2]
  self-cleavage kobs at 640 uM GlcN6P: < 1e-05 s⁻¹

## A42U U47A C70G
[1]
  self-cleavage kobs at 160 uM GlcN6P: < 1e-05 s⁻¹
[2]
  self-cleavage kobs at 640 uM GlcN6P: < 1e-05 s⁻¹

## A6C G13A G63A
[2]
  self-cleavage kobs at 640 uM GlcN6P: < 1e-05 s⁻¹
[3]
  self-cleavage kobs at 2500 uM GlcN6P: < 1e-05 s⁻¹

## U45G C58G G59A
[1]
  self-cleavage kobs at 160 uM GlcN6P: < 1e-05 s⁻¹
[3]
  self-cleavage kobs at 2500 uM GlcN6P: < 1e-05 s⁻¹

## A6C G41A U55C U65G
[2]
  self-cleavage kobs at 640 uM GlcN6P: < 1e-05 s⁻¹

## A52G C68G U69C
[1]
  self-cleavage kobs at 160 uM GlcN6P: 5.98e-05 ± 2.7e-05 s⁻¹

## A6C G59C G60U
[2]
  self-cleavage kobs at 640 uM GlcN6P: < 1e-05 s⁻¹
[3]
  self-cleavage kobs at 2500 uM GlcN6P: < 1e-05 s⁻¹

## U45G C50G C71U
[1]
  self-cleavage kobs at 160 uM GlcN6P: < 1e-05 s⁻¹

## A6U C34A G44U C67U
[2]
  self-cleavage kobs at 640 uM GlcN6P: < 1e-05 s⁻¹
[3]
  self-cleavage kobs at 2500 uM GlcN6P: < 1e-05 s⁻¹

## G44U C58U
[1]
  self-cleavage kobs at 160 uM GlcN6P: < 1e-05 s⁻¹
[2]
  self-cleavage kobs at 640 uM GlcN6P: < 1e-05 s⁻¹
[3]
  self-cleavage kobs at 2500 uM GlcN6P: < 1e-05 s⁻¹
[4]
  self-cleavage kobs at 10000 uM GlcN6P: < 1e-05 s⁻¹

## A6G C8U U31G C71G
[2]
  self-cleavage kobs at 640 uM GlcN6P: < 1e-05 s⁻¹

## U47A U65A
[1]
  self-cleavage kobs at 160 uM GlcN6P: 0.000347 ± 7.5e-05 s⁻¹
[2]
  self-cleavage kobs at 640 uM GlcN6P: 0.00132 ± 0.00027 s⁻¹
[3]
  self-cleavage kobs at 2500 uM GlcN6P: 0.00331 ± 0.00064 s⁻¹

## U54G C68A
[1]
  self-cleavage kobs at 160 uM GlcN6P: 6.58e-05 ± 2.7e-05 s⁻¹
[2]
  self-cleavage kobs at 640 uM GlcN6P: 6.59e-05 ± 2.9e-05 s⁻¹
[3]
  self-cleavage kobs at 2500 uM GlcN6P: 0.000107 ± 2.7e-05 s⁻¹

## A48C C61G
[1]
  self-cleavage kobs at 160 uM GlcN6P: < 1e-05 s⁻¹
[2]
  self-cleavage kobs at 640 uM GlcN6P: < 1e-05 s⁻¹
[3]
  self-cleavage kobs at 2500 uM GlcN6P: < 1e-05 s⁻¹
[4]
  self-cleavage kobs at 10000 uM GlcN6P: < 1e-05 s⁻¹

## G43U A53C G62U
[1]
  self-cleavage kobs at 160 uM GlcN6P: < 1e-05 s⁻¹
[3]
  self-cleavage kobs at 2500 uM GlcN6P: < 1e-05 s⁻¹

## G40A U47C
[1]
  self-cleavage kobs at 160 uM GlcN6P: 0.000162 ± 4.2e-05 s⁻¹
[4]
  self-cleavage kobs at 10000 uM GlcN6P: 0.00144 ± 0.00069 s⁻¹

## U57G C68U C71U
[1]
  self-cleavage kobs at 160 uM GlcN6P: 4.43e-05 ± 1.8e-05 s⁻¹
[3]
  self-cleavage kobs at 2500 uM GlcN6P: 5.05e-05 ± 2.4e-05 s⁻¹

## A6G G63U A64C C67U U69G
[2]
  self-cleavage kobs at 640 uM GlcN6P: < 1e-05 s⁻¹
[3]
  self-cleavage kobs at 2500 uM GlcN6P: < 1e-05 s⁻¹

## A6G U54A U57G
[2]
  self-cleavage kobs at 640 uM GlcN6P: < 1e-05 s⁻¹

## C50G A53U C68G
[1]
  self-cleavage kobs at 160 uM GlcN6P: 0.000236 ± 6.7e-05 s⁻¹
[2]
  self-cleavage kobs at 640 uM GlcN6P: 0.000668 ± 0.00018 s⁻¹

## G44U C71G
[1]
  self-cleavage kobs at 160 uM GlcN6P: < 1e-05 s⁻¹
[2]
  self-cleavage kobs at 640 uM GlcN6P: < 1e-05 s⁻¹
[4]
  self-cleavage kobs at 10000 uM GlcN6P: < 1e-05 s⁻¹

## C50G A52G C67U
[1]
  self-cleavage kobs at 160 uM GlcN6P: 0.000143 ± 5.1e-05 s⁻¹
[2]
  self-cleavage kobs at 640 uM GlcN6P: 0.000875 ± 0.00027 s⁻¹
[3]
  self-cleavage kobs at 2500 uM GlcN6P: 7.71e-05 ± 2.8e-05 s⁻¹

## G43U G62U C67U
[1]
  self-cleavage kobs at 160 uM GlcN6P: < 1e-05 s⁻¹
[2]
  self-cleavage kobs at 640 uM GlcN6P: < 1e-05 s⁻¹

## C50A U57G U65C C70G
[1]
  self-cleavage kobs at 160 uM GlcN6P: 8.04e-05 ± 2.6e-05 s⁻¹
[2]
  self-cleavage kobs at 640 uM GlcN6P: 0.000128 ± 3.7e-05 s⁻¹
[3]
  self-cleavage kobs at 2500 uM GlcN6P: 0.000108 ± 3.5e-05 s⁻¹
[4]
  self-cleavage kobs at 10000 uM GlcN6P: 3.25e-05 ± 1.6e-05 s⁻¹

## U54G C58G C67G
[1]
  self-cleavage kobs at 160 uM GlcN6P: 0.000136 ± 3.4e-05 s⁻¹
[2]
  self-cleavage kobs at 640 uM GlcN6P: 0.000215 ± 7.1e-05 s⁻¹
[3]
  self-cleavage kobs at 2500 uM GlcN6P: 8.44e-05 ± 3.2e-05 s⁻¹

## G41U A48U U49G
[1]
  self-cleavage kobs at 160 uM GlcN6P: < 1e-05 s⁻¹
[2]
  self-cleavage kobs at 640 uM GlcN6P: < 1e-05 s⁻¹
[3]
  self-cleavage kobs at 2500 uM GlcN6P: < 1e-05 s⁻¹

## A6C A15U G29A A53G
[2]
  self-cleavage kobs at 640 uM GlcN6P: < 1e-05 s⁻¹

## G66A C67A C70U
[1]
  self-cleavage kobs at 160 uM GlcN6P: 0.000193 ± 4.7e-05 s⁻¹
[2]
  self-cleavage kobs at 640 uM GlcN6P: 0.000467 ± 0.0001 s⁻¹
[3]
  self-cleavage kobs at 2500 uM GlcN6P: 0.000861 ± 0.0002 s⁻¹

## A6G A52C C58G G63A G66C
[2]
  self-cleavage kobs at 640 uM GlcN6P: < 1e-05 s⁻¹
[3]
  self-cleavage kobs at 2500 uM GlcN6P: < 1e-05 s⁻¹

## A6G A36U A42G G44U G60C
[2]
  self-cleavage kobs at 640 uM GlcN6P: < 1e-05 s⁻¹

## A48U G60U C68U
[1]
  self-cleavage kobs at 160 uM GlcN6P: < 1e-05 s⁻¹
[3]
  self-cleavage kobs at 2500 uM GlcN6P: < 1e-05 s⁻¹

## U45A U54C
[1]
  self-cleavage kobs at 160 uM GlcN6P: 0.00513 ± 0.001 s⁻¹
[2]
  self-cleavage kobs at 640 uM GlcN6P: 0.0141 ± 0.0026 s⁻¹

## A6U G29A G44U
[2]
  self-cleavage kobs at 640 uM GlcN6P: < 1e-05 s⁻¹

## U55G U56C
[1]
  self-cleavage kobs at 160 uM GlcN6P: 0.000157 ± 3.8e-05 s⁻¹
[2]
  self-cleavage kobs at 640 uM GlcN6P: 0.000938 ± 0.00021 s⁻¹
[3]
  self-cleavage kobs at 2500 uM GlcN6P: 0.00118 ± 0.00028 s⁻¹
[4]
  self-cleavage kobs at 10000 uM GlcN6P: 0.00614 ± 0.0016 s⁻¹

## A48C U69A
[1]
  self-cleavage kobs at 160 uM GlcN6P: < 1e-05 s⁻¹
[2]
  self-cleavage kobs at 640 uM GlcN6P: < 1e-05 s⁻¹

## C50G G66C
[1]
  self-cleavage kobs at 160 uM GlcN6P: 0.000112 ± 3.9e-05 s⁻¹

## G44U C50A C68G
[1]
  self-cleavage kobs at 160 uM GlcN6P: < 1e-05 s⁻¹
[3]
  self-cleavage kobs at 2500 uM GlcN6P: < 1e-05 s⁻¹

## A6U A15G A48U
[2]
  self-cleavage kobs at 640 uM GlcN6P: < 1e-05 s⁻¹

## C61G U65A
[1]
  self-cleavage kobs at 160 uM GlcN6P: < 1e-05 s⁻¹
[2]
  self-cleavage kobs at 640 uM GlcN6P: < 1e-05 s⁻¹
[3]
  self-cleavage kobs at 2500 uM GlcN6P: < 1e-05 s⁻¹
[4]
  self-cleavage kobs at 10000 uM GlcN6P: < 1e-05 s⁻¹

## A6G G62U C71G
[2]
  self-cleavage kobs at 640 uM GlcN6P: < 1e-05 s⁻¹

## A6G U56C C61G
[2]
  self-cleavage kobs at 640 uM GlcN6P: < 1e-05 s⁻¹
[3]
  self-cleavage kobs at 2500 uM GlcN6P: < 1e-05 s⁻¹

## G43U G66U C67U
[1]
  self-cleavage kobs at 160 uM GlcN6P: < 1e-05 s⁻¹

## U49A A52U
[1]
  self-cleavage kobs at 160 uM GlcN6P: < 1e-05 s⁻¹
[2]
  self-cleavage kobs at 640 uM GlcN6P: < 1e-05 s⁻¹
[3]
  self-cleavage kobs at 2500 uM GlcN6P: < 1e-05 s⁻¹
[4]
  self-cleavage kobs at 10000 uM GlcN6P: < 1e-05 s⁻¹
